Measurements taken from US20060111296A1 (DYAX, published 2006).

Molecular target: T1, plasmin (human, UniProt P00747 97-810, limits assumed)
T1 construct: Active plasmin is a two-chain, disulfide-linked form of plasminogen; also called human plasmin
Test: inhibition constant for human plasmin; method not described

T1 sequence (P00747 97-810 limits assumed): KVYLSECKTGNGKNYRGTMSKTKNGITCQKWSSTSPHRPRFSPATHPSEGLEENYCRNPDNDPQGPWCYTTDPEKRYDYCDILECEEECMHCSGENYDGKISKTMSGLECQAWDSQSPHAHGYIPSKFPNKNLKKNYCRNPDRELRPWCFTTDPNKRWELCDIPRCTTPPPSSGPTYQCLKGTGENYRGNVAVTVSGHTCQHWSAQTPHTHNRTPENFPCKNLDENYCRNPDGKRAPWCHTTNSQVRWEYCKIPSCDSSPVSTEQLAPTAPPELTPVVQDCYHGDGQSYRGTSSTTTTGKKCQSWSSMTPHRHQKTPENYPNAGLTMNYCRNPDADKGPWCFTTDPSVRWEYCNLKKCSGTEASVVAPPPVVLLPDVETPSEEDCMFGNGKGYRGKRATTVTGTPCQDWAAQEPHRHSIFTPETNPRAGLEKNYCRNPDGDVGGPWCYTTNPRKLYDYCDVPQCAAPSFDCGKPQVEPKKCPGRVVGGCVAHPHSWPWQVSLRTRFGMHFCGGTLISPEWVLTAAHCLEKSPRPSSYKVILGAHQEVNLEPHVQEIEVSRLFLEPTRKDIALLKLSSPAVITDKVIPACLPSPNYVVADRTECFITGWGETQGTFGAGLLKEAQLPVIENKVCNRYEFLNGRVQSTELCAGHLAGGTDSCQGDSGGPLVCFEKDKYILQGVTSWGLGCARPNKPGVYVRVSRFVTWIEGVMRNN

Ki: 0.088 nM
B1: DX-1000 (designed binder)
chain: MHSFCAFKAETGPCRARFDRWFFNIFTRQCEEFIYGGCEGNQNRFESLEECKKMCTRD
notes: Engineered Kunitz domain on the human LACI-K1 framework; also called DX-1000 (unmodified)
